Target: MC1-R
Assay: cell-based or functional assay

inhibits activation of the MC1-R: 220 pM
Substance: Recombinant mouse agouti signal protein (from UniProt Q03288 23-131) (ligand)

Reference: US20030224972A1
